Assay results from publication doi:10.1101/293811 (bioRxiv, 2018).

Biological target: alanine or glycine:cation symporter (AgcS) from Methanococcus maripaludis (Methanococcus maripaludis, UniProt Q6LX42)
Assay: crystal structure

alanine or glycine:cation symporter (AgcS) from Methanococcus maripaludis, sequence (Q6LX42 whole entry): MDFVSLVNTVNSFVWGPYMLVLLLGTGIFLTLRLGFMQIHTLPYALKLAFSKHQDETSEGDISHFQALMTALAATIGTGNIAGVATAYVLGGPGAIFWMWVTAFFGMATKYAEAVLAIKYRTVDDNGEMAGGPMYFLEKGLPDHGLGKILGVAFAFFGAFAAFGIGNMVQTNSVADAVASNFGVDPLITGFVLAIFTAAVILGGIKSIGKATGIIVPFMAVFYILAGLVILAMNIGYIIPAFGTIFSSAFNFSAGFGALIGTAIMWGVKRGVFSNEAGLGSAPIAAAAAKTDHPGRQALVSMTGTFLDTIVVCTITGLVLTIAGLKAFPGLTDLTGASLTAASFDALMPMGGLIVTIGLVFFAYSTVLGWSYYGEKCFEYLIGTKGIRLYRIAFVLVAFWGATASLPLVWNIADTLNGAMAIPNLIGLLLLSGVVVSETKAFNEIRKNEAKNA

B1: 7B4 Fab fragment (Fab, V domains shown)
VH: EVKLEESGGGLVQPGGSMKLSCAASGFTSSDFAMDWVRQSPEAGLEWVAEIAASERHYAESVKGRFTISRDDSKSSVYLQMNSLRAEDSGLYYCTRTAGACGQWGTGTTVTVSS
VL: DIAMTQSPASLSASVGETVTITCRTSENIASALAWYQQKQGKSPQLLVMNAKTLAAGVPSRFSGSGSGTAFSLKINSLQPEDFGSYSCQHAAGWLLTFGGGTKLEIK
binding result: binds
